Measurements published in paper PMC3579940.

Assays:
[1] = target: biotin-AR-CTF; assay: SPR; BIAcore S51; biotin-EGFR-ligand-CTFs immobilised (~1000 RU) on streptavidin chips; GST-ZnF5-8 0.03-1.0 µM injected at 30 µL/min for 2 min, 25°C; 10 mM HEPES pH 7.4, 150 mM NaCl, 0.005% Surfactant P20; KD = kd/ka
[2] = target: biotin-EPR-CTF; assay: as above

Kd [1]: 76.5 nM | koff [1]: 0.00144 s⁻¹ | kon [1]: 18700 M⁻¹ s⁻¹ | Kd [2]: 146 nM | koff [2]: 0.000806 s⁻¹ | kon [2]: 5610 M⁻¹ s⁻¹
Substance: recombinant GST-tagged ZnF5-8 of PLZF (domain or fragment)
